These results are taken from publication PMC3646996 (Journal of molecular biology, 2013).

Data set [1] has as its target PhoB (Escherichia coli) (UniProt P0AFJ5). The following applies: cited from earlier work.
The target is the same in data set [2]. Particulars: cited from earlier work. The source holds these as a separate data set.
The next data set deals with T1, OmpR (Escherichia coli, UniProt P0AA16 1-239).
T1 sequence: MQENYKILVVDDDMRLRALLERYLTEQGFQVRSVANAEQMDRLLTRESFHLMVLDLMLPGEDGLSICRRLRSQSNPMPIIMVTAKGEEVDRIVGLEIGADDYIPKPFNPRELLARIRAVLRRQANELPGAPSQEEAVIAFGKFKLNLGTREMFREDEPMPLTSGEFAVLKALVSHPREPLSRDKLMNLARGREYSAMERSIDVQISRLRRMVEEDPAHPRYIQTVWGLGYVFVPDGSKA
Briefly: ITC. On the technique in general: ITC needs no label: the signal is the heat of the interaction.

Data set [3] concerns the molecule itself. Nature of the data set: AUC.
Data set [4] deals with the molecule itself. Briefly: AUC. This is another data set of the same source.

Where two headings read alike, the source gives them in different places.

Chain of PhoB (Escherichia coli) (P0AFJ5 whole entry): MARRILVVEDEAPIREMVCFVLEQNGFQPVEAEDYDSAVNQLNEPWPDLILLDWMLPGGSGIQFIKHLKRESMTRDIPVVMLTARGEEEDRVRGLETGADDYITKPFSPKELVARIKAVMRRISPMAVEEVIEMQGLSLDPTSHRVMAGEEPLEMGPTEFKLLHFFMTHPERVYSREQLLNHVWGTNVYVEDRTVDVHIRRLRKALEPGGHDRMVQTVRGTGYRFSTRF

In general, Kd refers to the free concentration of one partner at which half of the binding sites on the other are occupied at equilibrium, for simple one-to-one binding. As to PhoB (from UniProt P0AFJ5), the Kd was 380 µM in the data set with PhoB (Escherichia coli) [1] and 5.1 µM in the data set with PhoB (Escherichia coli) [2].

B1: F1 (dsDNA)
DNA 1: GCTTTACTTTTGGTTACATATTTCG
DNA 2: CGAAATATGTAACCAAAAGTAAAGC
For the molecule B1, in the data set with OmpR, the affinity, expressed as Kd, was 2 µM.

B2: OmpR (unphosphorylated, untreated) (natural protein, Escherichia coli, UniProt P0AA16 1-239, looked up)
chain: T1 sequence
A word on the stoichiometry N: it is the number of molecules, sites or subunits per partner or assembly. With B2, in “AUC [3]”, the affinity, expressed as Kd, was 1100 µM and the “stoichiometry N” value was found to be 2.

B3: BeF3−-treated OmpR (natural protein, Escherichia coli, UniProt P0AA16 1-239, looked up)
chain: T1 sequence
modifications: BeF3− (noncovalent small molecule phosphoryl analog); residue not given
In the case of B3, in “AUC [4]”, the affinity, expressed as Kd, was 7 µM and the “stoichiometry N” value is 2.
